Data reported in patent publication US20060183130A1 (VANDERBILT UNIVERSITY, published 2006).

Target: T1, endogenous c-Myc of p53-/- mouse embryo fibroblasts (mouse, UniProt P01108-2 1-439, limits assumed)
T1 construct: Endogenous protein in a cell lysate
Test: co-IP, summary of the experiments (endogenous proteins)
Excerpt: FIGS. 2A-F ARF—binds to c-Myc. FIGS. 2A-D, Coimmunoprecipitation of ARF and c-Myc. Cos-7 cells transfected with c-Myc and/or ARF were subjected to immunoprecipitation (IP) using anti-Mycfl (fl, full length; FIG. 2A) or anti-ARF (FIG. 2B) followed by immunoblot (IB) analysis using the indicated antibody. FIG. 2C, c-myc^{-/-} cells, ARF^{-/-} MEFs or p53^{-/-} MEFs were subjected to IP using anti-Mycfl followed by IB analysis. FIG. 2D, HeLa cells were subjected to IP using anti-p14ARF or anti-Mycfl followed by IB analysis. FIG. 2E, Coimmunoprecipitation of c-Myc deletions with ARF. Cos-7 cells transfected with the indicated c-Myc deletion mutant were subjected to IP with anti-ARF followed by IB analysis. FIG. 2F, Schematic representation of the structure of c-Myc and c-Myc deletions showing relative binding to ARF.
Immunoprecipitation and Immunoblotting Analysis. Cell lysates were prepared and coimmunoprecipitation of endogenous proteins was performed as described previously (Weber et al., 1999). For coimmunoprecipitation of exogenous proteins, cells were lysed in Ab lysis buffer (20 mM Tris, pH 7.5, 0.5% Triton X-100, 0.5% deoxycholic acid (DOC) and 0.5% SDS, 1 mM EDTA) and immunoprecipitates were subjected immunoblot analysis using anti-c-Mycfl (06-340, Upstate) or anti-ARF (Ab80, GeneTex; 07-543, Upstate) and enhanced chemiluminescence for detection. […]

T1 sequence (P01108 16-454 limits assumed): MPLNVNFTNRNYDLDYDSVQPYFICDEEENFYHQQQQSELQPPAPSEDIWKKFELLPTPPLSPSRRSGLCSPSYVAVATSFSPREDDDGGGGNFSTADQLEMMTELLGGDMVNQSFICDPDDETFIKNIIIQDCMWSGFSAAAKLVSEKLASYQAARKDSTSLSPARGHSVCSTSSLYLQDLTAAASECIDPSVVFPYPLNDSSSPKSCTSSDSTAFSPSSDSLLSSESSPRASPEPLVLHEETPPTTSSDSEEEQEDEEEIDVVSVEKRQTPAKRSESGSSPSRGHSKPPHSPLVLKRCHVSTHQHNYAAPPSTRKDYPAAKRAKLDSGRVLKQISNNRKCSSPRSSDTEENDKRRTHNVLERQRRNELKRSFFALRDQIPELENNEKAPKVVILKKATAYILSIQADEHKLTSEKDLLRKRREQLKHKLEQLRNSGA

- binding result: binds
B1: mouse p19ARF (murine p19Arf) (other)
chain: MGRRFLVTVRIQRAGRPLQERVFLVKFVRSRRPRTASCALAFVNMLLRLERILRRGPHRNPGPGDDDGQRSRSSSSAQLRCRFELRGPHYLLPPGARRSAGRLPGHAGGAARVRGSAGCARCLGSPAARLGPRAGTSRHRAIFAFRWVLFVFRWVVFVYRWERRPDRRA
